In US20250250357A1 (NANJING ZAIMING PHARMACEUTICAL, published 2025):
Positions count from the first letter of the chain named.

T1: monkey MSLN full-length protein (NCBI: XP_028696439.1) expressed on HEK293T-monkey MSLN cells (monkey)
T1 construct: Whole encoded precursor
T1 chain: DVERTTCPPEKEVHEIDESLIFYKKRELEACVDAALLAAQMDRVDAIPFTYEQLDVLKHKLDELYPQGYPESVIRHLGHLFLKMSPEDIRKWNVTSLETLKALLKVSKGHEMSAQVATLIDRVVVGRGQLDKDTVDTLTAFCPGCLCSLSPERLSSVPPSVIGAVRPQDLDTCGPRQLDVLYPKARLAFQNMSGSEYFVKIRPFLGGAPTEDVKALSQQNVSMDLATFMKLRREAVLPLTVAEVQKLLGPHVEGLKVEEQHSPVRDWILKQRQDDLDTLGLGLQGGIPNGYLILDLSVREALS

B1: F7.33.24 (scFv, not shown: small tags and cut ends)
scFv: QVQLQQPGTELVKPGASVKLSCKASGYTFTSYWMHWVKQRPGQGLEWIGNVNPSNGGSNYNEKFKNKATLTVDKSSSTADMQLNSLTSEDSAVYYCAPHYIGSRPGFAYWGQGTLVTVSGGGGGSGGGGSGGGGSDIVMTQSQKFMSTSVGDRVSVTCKASQNVGTNIAWYQQKPGQSPKALIYSASYRYSGVPDRFTGSGSGTDFTLTITNVQSEDLAEYFCQQYNSYPLTFGGGTKVEIK
notes: also called S009-F7.33.24 (parental variable regions, in the humanized-antibody ELISA)
B2: F7.33.24-H2 (scFv, not shown: small tags and cut ends)
scFv: EVQLVQSGAEVKKPGASVKVSCKASGYTFTSYWMHWVRQAPGQRLEWMGNVNPSNGGSNYNEKFKNRVTITVDKSASTAYMELSSLRSEDTAVYYCAPHYIGSRPGFAYWGQGTLVTVSSGGGGSGGGGSGGGGSDIVMTQTPLSLSVTPGQPASISCKASQNVGTNIAWYLQKPGQSPQALIYSASYRYSGVPDRFSGSGSGTDFTLKISRVEAEDVGVYYCQQYNSYPLTFGGGTKVEIK
notes: also called S009-F7.33.24 humanized antibody VH1 + VL2
B3: F7.33.24-H8 (scFv, not shown: small tags and cut ends)
scFv: B2 scFv with R44G
notes: also called S009-F7.33.24 humanized antibody VH2 + VL2
B4: F7.33.24-H11 (scFv, not shown: small tags and cut ends)
scFv: B2 scFv with R44G, G56A
notes: also called S009-F7.33.24 humanized antibody VH2a + VL2
B5: F7.33.24-H9 (scFv, not shown: small tags and cut ends)
scFv: B2 scFv with R44G, L172Q
notes: also called S009-F7.33.24 humanized antibody VH2 + VL3
B6: F7.33.24-H3 (scFv, not shown: small tags and cut ends)
scFv: B2 scFv with L172Q
notes: also called S009-F7.33.24 humanized antibody VH1 + VL3
B7: F7.33.24-H5 (scFv, not shown: small tags and cut ends)
scFv: B2 scFv with N55S
notes: also called S009-F7.33.24 humanized antibody VH1a + VL2
B8: F7.33.24-H12 (scFv, not shown: small tags and cut ends)
scFv: B2 scFv with R44G, G56A, L172Q
notes: also called S009-F7.33.24 humanized antibody VH2a + VL3
B9: F7.33.24-H6 (scFv, not shown: small tags and cut ends)
scFv: B2 scFv with N55S, L172Q
notes: also called S009-F7.33.24 humanized antibody VH1a + VL3
B10: S009-F3.23.1 (antibody, human IgG1, kappa, V domains shown)
VH: QVQLQQSGADLVRPGASVTLSCKASGYTFTDYEMHWVKQTPVHGLEWIGAIDPETGDTVYNQNFKGKAILTADKSSSTAYMELRSLTSEDSAVYYCTRYGYDWGWGQGTTLTVSS
VL: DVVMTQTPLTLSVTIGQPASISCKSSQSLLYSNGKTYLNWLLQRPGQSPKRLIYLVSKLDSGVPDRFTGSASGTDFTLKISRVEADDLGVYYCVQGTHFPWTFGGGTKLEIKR
notes: human-murine chimeric antibody, human IgG1/kappa constant regions
B11: S009-F3.7.3 (antibody, human IgG1, kappa, V domains shown)
VH: EVNFEESGGGLVQPGGSMKLSCVASGFTFSNYWMNWVRQSPEKGLEWVAQIRLKSDNYATHYAESVKGRFTISRDDFKSSVYLQMNNLRAEDTGIYYCTVGTGGYWGQGTTLTVSS
VL: DIVLTQSPASLAMSLGKRATISCRASESVSIVGTNVIHWFQQKPGQPPKLLIYHASNLETGVPARFSGSGSGTDFTLTIDPVEEDDVAIYHCLQSRKIPWTFGGGTKLEIKR
notes: as for B10
B12: S009-F3.16.1 (antibody, human IgG1, kappa, V domains shown)
VH: B11 VH with N3K, T71S, F77S, T99S
VL: B11 VL with M13L, L15P, V32I, N35D, G72R, H91Y
notes: as for B10

target: T2, human MSLN-R3 protein (human, UniProt Q13421 487-598); experiment: ELISA on coated antigen, antibody 0.01 nM
T2 construct: also called hMSLN-R3
T2 sequence (Q13421 495-606, form in doubt): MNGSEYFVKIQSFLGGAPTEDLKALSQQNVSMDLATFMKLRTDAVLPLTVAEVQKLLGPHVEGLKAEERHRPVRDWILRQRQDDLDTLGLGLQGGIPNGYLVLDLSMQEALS

Binder | OD450
B1 | 0.04 OD450
B2 | 0.04 OD450
B3 | 0.05 OD450
B4 | 0.05 OD450
B5 | 0.05 OD450
B6 | 0.04 OD450
B7 | 0.04 OD450
B8 | 0.04 OD450
B9 | 0.04 OD450

target: T3, human MSLN protein endogenously expressed on OVCAR3 tumor cells (human, UniProt Q13421 296-598); experiment: FACS on OVCAR3 cells
T3 construct: whole, on cells; Endogenous target on OVCAR3 cells; kept apart from the recombinant full-length construct; also called mesothelin
T3 sequence (Q13421 other isoform, or with tags, fused parts or gaps): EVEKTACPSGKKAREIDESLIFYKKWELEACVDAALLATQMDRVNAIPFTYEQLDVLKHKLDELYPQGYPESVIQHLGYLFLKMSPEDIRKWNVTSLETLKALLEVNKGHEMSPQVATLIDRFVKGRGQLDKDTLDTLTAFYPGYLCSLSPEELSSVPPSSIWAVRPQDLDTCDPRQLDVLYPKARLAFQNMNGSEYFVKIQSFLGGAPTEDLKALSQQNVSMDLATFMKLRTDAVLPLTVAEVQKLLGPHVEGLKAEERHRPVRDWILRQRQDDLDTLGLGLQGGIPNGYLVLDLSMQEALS

Binder | Maximum mean fluorescence intensity | EC50
B10 | 288 | 
B11 | 3700 | 1.94 nM
B12 | 4190 | 1.61 nM

target: T4, human MSLN-hFc protein (Acro, Cat. No. MSN-H5253) (human, UniProt Q13421 296-580); experiment: ELISA on coated antigen, antibody 0.0001 nM
T4 construct: the method names the coated protein as human MSLN-hFc (Acro); also called human MSLN full-length protein
T4 sequence (Q13421 other isoform, or with tags, fused parts or gaps limits assumed): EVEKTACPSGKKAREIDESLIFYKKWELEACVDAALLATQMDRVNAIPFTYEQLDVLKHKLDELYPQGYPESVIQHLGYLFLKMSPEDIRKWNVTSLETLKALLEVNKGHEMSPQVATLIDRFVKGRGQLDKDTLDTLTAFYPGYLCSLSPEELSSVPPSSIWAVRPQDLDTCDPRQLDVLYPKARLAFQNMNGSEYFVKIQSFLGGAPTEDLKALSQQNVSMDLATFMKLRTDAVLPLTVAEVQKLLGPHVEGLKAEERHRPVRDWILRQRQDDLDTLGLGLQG

Binder | OD450
B1 | 0.04 OD450
B2 | 0.05 OD450
B3 | 0.05 OD450
B4 | 0.04 OD450
B5 | 0.05 OD450
B6 | 0.05 OD450
B7 | 0.05 OD450
B8 | 0.05 OD450
B9 | 0.05 OD450

target: T2, human MSLN-R3 protein; experiment: ELISA on coated antigen, antibody 0.0001 nM

Binder | OD450
B1 | 0.04 OD450
B2 | 0.04 OD450
B3 | 0.05 OD450
B4 | 0.05 OD450
B5 | 0.04 OD450
B6 | 0.04 OD450
B7 | 0.04 OD450
B8 | 0.04 OD450
B9 | 0.04 OD450

target: T4, human MSLN-hFc protein (Acro, Cat. No. …); experiment: ELISA on coated antigen, antibody 10 nM

Binder | OD450
B1 | 1.63 OD450
B2 | 2.07 OD450
B3 | 2.04 OD450
B4 | 2.18 OD450
B5 | 2.49 OD450
B6 | 2.58 OD450
B7 | 1.91 OD450
B8 | 2.28 OD450
B9 | 2.36 OD450

target: T4, human MSLN-hFc protein (Acro, Cat. No. …); experiment: ELISA on coated antigen, antibody 100 nM

Binder | OD450
B1 | 2.58 OD450
B2 | 2.91 OD450
B3 | 2.7 OD450
B4 | 2.65 OD450
B5 | 2.78 OD450
B6 | 2.93 OD450
B7 | 2.85 OD450
B8 | 2.65 OD450
B9 | 2.96 OD450

target: T2, human MSLN-R3 protein; experiment: ELISA on coated antigen, antibody 0.1 nM

Binder | OD450
B1 | 0.09 OD450
B2 | 0.06 OD450
B3 | 0.09 OD450
B4 | 0.09 OD450
B5 | 0.11 OD450
B6 | 0.13 OD450
B7 | 0.06 OD450
B8 | 0.09 OD450
B9 | 0.07 OD450

target: T4, human MSLN-hFc protein (Acro, Cat. No. …); experiment: ELISA on coated antigen, antibody 0.1 nM

Binder | OD450
B1 | 0.06 OD450
B2 | 0.08 OD450
B3 | 0.09 OD450
B4 | 0.09 OD450
B5 | 0.1 OD450
B6 | 0.13 OD450
B7 | 0.07 OD450
B8 | 0.1 OD450
B9 | 0.08 OD450

Target: T1, monkey MSLN full-length protein (NCBI: …)
Experiment: FACS on HEK293T-monkey MSLN cells

Binder | Maximum mean fluorescence intensity | binding result | EC50
B10 | 88 | no binding | 
B11 | 7100 |  | 
B12 | 24800 |  | 1.4 nM

target: T5, human MSLN-R3 protein (Met487-Ser606 of NCBI AAH09272.1) expressed on HEK293T-hMSLN-R3 cells (human, UniProt Q13421 487-606); experiment: FACS on HEK293T-hMSLN-R3 cells
T5 construct: also called Region3
T5 sequence (Q13421 495-614): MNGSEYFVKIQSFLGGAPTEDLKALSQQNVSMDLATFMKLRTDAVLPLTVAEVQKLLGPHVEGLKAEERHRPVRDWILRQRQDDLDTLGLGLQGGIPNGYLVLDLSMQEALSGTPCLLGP

Binder | EC50 | Maximum mean fluorescence intensity
B10 | 0.84 nM | 4240
B11 | 0.72 nM | 7920
B12 | 0.43 nM | 8060

target: T4, human MSLN-hFc protein (Acro, Cat. No. …); experiment: ELISA on coated antigen, antibody 0.001 nM

Binder | OD450
B1 | 0.26 OD450
B2 | 0.05 OD450
B3 | 0.05 OD450
B4 | 0.04 OD450
B5 | 0.04 OD450
B6 | 0.05 OD450
B7 | 0.05 OD450
B8 | 0.04 OD450
B9 | 0.05 OD450

target: T2, human MSLN-R3 protein; experiment: ELISA on coated antigen, antibody 1 nM

Binder | OD450
B1 | 0.71 OD450
B2 | 0.42 OD450
B3 | 0.63 OD450
B4 | 0.68 OD450
B5 | 0.82 OD450
B6 | 0.89 OD450
B7 | 0.39 OD450
B8 | 0.65 OD450
B9 | 0.53 OD450

target: T2, human MSLN-R3 protein; experiment: ELISA on coated antigen, antibody 100 nM

Binder | OD450
B1 | 1.92 OD450
B2 | 1.9 OD450
B3 | 2.16 OD450
B4 | 2.1 OD450
B5 | 2.25 OD450
B6 | 1.91 OD450
B7 | 1.92 OD450
B8 | 2.04 OD450
B9 | 1.98 OD450

target: T4, human MSLN-hFc protein (Acro, Cat. No. …); experiment: ELISA on coated antigen, antibody 0.01 nM

Binder | OD450
B1 | 0.21 OD450
B2 | 0.05 OD450
B3 | 0.05 OD450
B4 | 0.04 OD450
B5 | 0.05 OD450
B6 | 0.06 OD450
B7 | 0.04 OD450
B8 | 0.04 OD450
B9 | 0.05 OD450

target: T2, human MSLN-R3 protein; experiment: ELISA on coated antigen, antibody 0.001 nM

Binder | OD450
B1 | 0.04 OD450
B2 | 0.04 OD450
B3 | 0.04 OD450
B4 | 0.04 OD450
B5 | 0.04 OD450
B6 | 0.04 OD450
B7 | 0.04 OD450
B8 | 0.04 OD450
B9 | 0.04 OD450

target: T2, human MSLN-R3 protein; experiment: ELISA on coated antigen, antibody 10 nM

Binder | OD450
B1 | 1.78 OD450
B2 | 1.62 OD450
B3 | 1.92 OD450
B4 | 1.94 OD450
B5 | 2.08 OD450
B6 | 1.86 OD450
B7 | 1.53 OD450
B8 | 1.95 OD450
B9 | 1.74 OD450

target: T4, human MSLN-hFc protein (Acro, Cat. No. …); experiment: ELISA on coated antigen, antibody 1 nM

Binder | OD450
B1 | 0.27 OD450
B2 | 0.4 OD450
B3 | 0.48 OD450
B4 | 0.57 OD450
B5 | 0.66 OD450
B6 | 0.91 OD450
B7 | 0.33 OD450
B8 | 0.58 OD450
B9 | 0.45 OD450

target: T6, human MSLN full-length protein (NCBI: AAH09272.1) expressed on HEK293T-hMSLN-B8 cells (human, UniProt Q13421 296-598); experiment: FACS on HEK293T-hMSLN-B8 cells
T6 construct: Whole encoded precursor
T6 sequence (Q13421 other isoform, or with tags, fused parts or gaps limits assumed): as the sequence (Q13421 other isoform, or with tags, fused parts or gaps) above, with R14P counted along it

Binder | EC50 | Maximum mean fluorescence intensity
B10 | 33.7 nM | 26400
B11 | 2.25 nM | 88800
B12 | 1.46 nM | 89800
